Consider two substances from patent US20150005237A1, “PEPTIDIC INHIBITOR OF SIGNAL TRANSMISSION FROM G-ALPHA-S TO G-ALPHA-I-COUPLED RECEPTOR CASCADES” (UNIVERSITÄT INNSBRUCK, priority 2011, published 2015).

Experiment [1] concerns the target Gαi3 transiently overexpressed in COS7 cells. Kind of experiment: cAMP agarose precipitation from COS7 lysates after 15 min forskolin, immunoblot densitometry. Background: A western blot detects proteins with antibodies after separation by electrophoresis.
The target of experiment [2] is Gαi of δOR-HEK293 cells (endogenous, receptor-activated). Kind of experiment: cell-based or functional assay.

As for “endogenous PKA regulatory subunits (R/Reg) of COS7 cells, bound to 2AHA-cAMP-coupled agarose beads”, the fold enrichment of R:Gαi3 complexes (forskolin pre-treatment against basal conditions) in experiment [1] amounted to 3.8 fold.
On to “endogenous PKA regulatory subunits (R; RII/RegII) of δOR-HEK293 cells, cAMP-activated”, for which, in experiment [2], the sensitivity of the MAPK pathway (SNC80-mediated ERK1/2 phosphorylation) to stimulation by the δOR agonist was 7 fold.
